In patent US20150184142:

What was measured:
Compound 7 = test system: T1, Compound 7
T1 sequence: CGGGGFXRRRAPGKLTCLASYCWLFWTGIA

In the case of thrombin, the “cleavage by 1.4 nM thrombin at 37 C, HPLC” value (Compound 4) is reported as “Compound 1 was a better substrate for thrombin than Compounds 4 and 5”, the “cleavage by 1.4 nM thrombin in PBS at 37 C, HPLC” value (Compound 7) is reported as “Approximately 90% of Compound 7 was cleaved after 30 minutes” and the “cleavage by 1.4 nM thrombin at 37 C, HPLC” value (Compound 5) is reported as “Compound 1 was a better substrate for thrombin than Compounds 4 and 5”. The “cleavage by 1.4 nM thrombin at 37 C, HPLC” value (Compound 1) was 30% of Compound 1 was quickly cleaved and released and the “cleavage rate with 14 nM thrombin, HPLC, against Compound 2” value (Compound 1) was “at least 10-fold increase in cleavage rate compared to that of Compound 2”.
